{"source": "patent US8092794B2", "about": "“Pharmaceutical compositions comprising SODs and prolamine based peptide fragments” (Isocell Pharma S.A., priority 2006, dated 2012)", "key": {"[1]": {"tested_on": "foot oedema induced by carrageenan or adriamycin", "details": "cited from earlier work; for anti-inflammatory activity in rats: studies in rats"}, "[2]": {"experiment": "NBT photoreduction on NATIVE-PAGE electrophoresis (anti-radical / antioxidant activity of SODs)", "format": "biochemical", "details": "currently used bacterial host strains, rare codons", "method": "The expression products of the first variants for each kind of constructions were used to validate the anti-radical activity of the various biosynthetic SODs obtained. These activities were verified by the reduction of NBT on native PAGE.\nThe melon pseudo cytosolic Cu—ZnSOD and the human or tomato cytosolic Cu—ZnSOD as well as their equivalents bearing the two different gliadin peptides are analysed for their antiradical activities. These activities are verified according to the NBT photoreduction on NATIVE-PAGE electrophoresis (Beauchamps and Fridovitch, 1971).\nThe Cucumis melo recombinant SOD as well as its equivalents bearing the gliadin peptide (Gli-SOD) were produced and purified according to a multiple step denaturation/renaturation protocol. […] The potentiality of both recombinant proteins (Cucumis melo SOD and Gli-SOD) to reduce NBT on NATIVE-PAGE electrophoresis (NBT photoreduction, Beauchamps and Fridovitch, 1971) was evaluated and compared with that of the natural Cucumis melo extract.\nThe migration profile and the NBT reduction obtained on Native-PAGE electrophoresis corroborate the correct and efficient refolding of both recombinant proteins, SOD or Gli-SOD (4 000-10 000 UNBT/mg protein) which is a mandatory event to display their antioxidant activity."}, "[3]": {"tested_on": "HT-29 cell line", "experiment": "HT-29 cell proliferation (cell count, GUAVA PC Viacount)", "format": "cell-based, human", "details": "for toxic effect on HT-29 proliferation curves: 10 units, sampled over 72 hours; for dose that does not modify growth of the HT-29 cell line: dose range 0 to 50 NBT units", "method": "The human colon carcinoma cell line HT-29 (ATCC HTB-38) is grown in 10% foetal bovine serum (FBS) in Dulbecco's modified Eagle's medium (D-MEM) supplemented with GlutaMAX-1, 4.5 g/L D-Glucose, sodium pyruvate and 100 unit/ml of penicillin/streptomycin. For each experiment (n=4) approximately 2×10^4 cells/well were incubated for 24 hours at 37° C. in 5% CO2 atmosphere. Prior to any experiment, existing culture medium was replaced by a fresh one.\nAfter the incubation period, cell monolayers were detached with a PBS solution containing 0.05% trypsin and 0.5 mM EDTA, washed in calcium-free and magnesium-free phosphate-buffered saline solution (PBS) and collected by centrifugation. Cells were then counted in a hemocytometer by using the GUAVA PC Viacount Flex Kit and reported in cells/ml to estimate cellular proliferation.\nIn the current experiment, cultures are periodically sampled over a 72 hour period to assess the proliferation rate and the viability of HT-29 cells after exposure or not to various components, (a) 10 μM of gliadin peptide 982 (Triticum vulgare, QQPYPQPF, SEQ. ID No. 01) representing at least 100 times less than the concentration previously related to induce a significant enterocyte agglutination (De Vicenzi. M et al. 1997 Toxicology, vol 120 p 207) or enterocyte apoptosis (Giovannini et al. 2000, Toxicology, vol 145 p 63).\nFor recombinant protein dose-response experiments, HT-29 cells were incubated with increasing concentrations of recombinant SOD or Gli-SOD (0 to 50 NBT units) for a further 48 hours.\nCultures were periodically sampled over 72 hours to assess the proliferation rate and the viability of HT-29 cells after exposure or not to various components, (a) 10 units of recombinant SOD or (b) 10 units of recombinant SOD associated with 10 μM of peptide 982 or finally (c) 10 units of recombinant Gli-SOD (SOD physically linked to gliadin peptide 982)."}, "[4]": {"tested_on": "HT-29 cells", "experiment": "Basal apoptosis of HT-29 cells, annexin V test (GUAVA Nexin Kit)", "format": "cell-based, human", "details": "10 units, 24 hours; for rate of basal apoptosis (annexin V positive cells): basal 20% (20.5)", "method": "(§1) Apoptosis was analyzed in HT-29 cell line using the GUAVA Nexin Kit which discriminates between apoptotic and non apoptotic cells. This method utilizes annexin V Phycoerythrin to detect phopshatidylserine (PS) (Martin et al. 1995, J Exp Med vol 182 p 1545) on the external membrane of apoptotic cells.\n(§2) After 24 hours, cell monolayers are detached with a PBS solution containing trypsin 0.05% and EDTA 0.5 mM, washed in calcium-free and magnesium-free phosphate-buffered saline solution (PBS) and apoptotic cell staining is performed and analysed with a GUAVA PCA system.\n(§3) For the basal apoptotic inhibition (part A), the culture medium was replaced with fresh culture medium containing or absent 10 units of both recombinant SODs (NBT units). For the Orexin induced-apoptotic inhibition (part B), the culture medium was replaced with fresh culture medium containing 1 μM of orexin and/or 50 units of each recombinant SOD (NBT units). Results are expressed as the percentage of apoptotic annexin V-PE positive cells and are the means of four points."}, "[5]": {"tested_on": "HT-29 cells", "experiment": "Binding of SOD or Gli-SOD to HT-29 cells, FITC immunohistochemistry with EP-1669", "format": "cell-based, human", "details": "50 units, 24 hours", "method": "For each experiment (n=4), approximately 15×10^3 cells/lamella layer were incubated for 24 hours at 37° C. in 5% CO2 atmosphere. Prior to any experiment, existing culture medium was replaced by a fresh one.\nThe cell monolayer was then incubated in a fresh medium with or without 50 units of SOD or Gli-SOD for a further 24 hours, washed in calcium-free and magnesium-free phosphate-buffered saline solution (PBS) and then analyzed by immunohistochemistry. Binding of Gli-SOD to HT-29 cells was analyzed using the EP-1669 as a first antibody (rabbit IgG anti-SOD, dilution 1/2000°) for 30 minutes followed by a second FITC-coupled antibody for further 30 minutes (goat anti-rabbit antibody, dilution 1/100). This method was chosen rather than flow cytometry because the latter technique requires that cells be harvested by trypsin treatment and collected prior to analysis, and such treatment would likely have negatively impacted the interaction between the Gli-SOD molecules and cell surfaces."}, "[6]": {"tested_on": "HT-29 cells", "experiment": "Orexin-induced apoptosis of HT-29 cells, annexin V test", "format": "cell-based, human", "details": "50 units + 1 μM orexin; for rate of orexin-induced apoptosis: orexin alone 40%", "method": "as §1, §2, §3\nIn a second experiment, the potent anti-apoptotic effect of the recombinant SOD or Gli-SOD was confirmed when apoptosis was induced via orexin supplementation to the HT-29 cells culture medium. In this case, the rate of HT-29 cell going into apoptosis may be enhanced from 20% evaluated for the basal level to 40% by addition of 1 μM of Orexin in the culture medium."}, "[7]": {"tested_on": "HT-29 cells", "experiment": "Xanthine/xanthine oxidase (X/XO)-induced apoptosis of HT-29 cells, annexin V test", "format": "cell-based, human", "details": "50 units, 10mU of X/XO complex", "method": "as §1, §2\nIn this third experiment, tests of the potent anti-apoptotic effect of the recombinant SOD or Gli-SOD according to the invention on the possible Fas/FasL pathway via Xanthine/xanthine oxidase induction in the HT-29 cells culture medium were carried out.\nIn this case, the rate of HT-29 cell going into apoptosis may be enhanced from 20% evaluated for the basal level to 30% by addition of 10mU of X/XO complex in the culture medium. Addition of 50 units of recombinant melon SOD or again 50 units of recombinant Gli-SOD to the culture medium, prevented the X/XO-induced apoptotic pathway in the HT-29 cells respectively by 71% and 86%."}}}
{"molecule": "homologous rat CuZn-SOD: rat CuZn superoxide dismutase", "values": [{"measurement": "anti-inflammatory activity in rats", "setting": "[1]", "result": "no anti-inflammatory activity"}]}
{"molecule": "bovine CuZn-SODs: bovine CuZn superoxide dismutase", "values": [{"measurement": "anti-inflammatory activity after oral administration", "setting": "[1]; administered orally, using liposomes or ceramides, rat leg oedema induced by carrageenan", "result": "reduction of rat leg oedema induced by carrageenan"}, {"measurement": "anti-inflammatory activity in rats", "setting": "[1]", "result": "such an anti-inflammatory activity"}]}
{"molecule": "Human CuZn-SOD: recombinant human cytosolic CuZn-SOD expressed in bacteria", "values": [{"measurement": "activity of biosynthetic SOD expressed in the applicant's bacterial system", "setting": "[2]", "result": "functional"}]}
{"molecule": "QQPYPQPQPF (Triticum vulgare) [peptide 982, 10 amino acids peptide of A-gliadin, Triticum vulgare]", "values": [{"measurement": "effect on HT-29 cell line proliferation at 24 hours", "setting": "[3]; 10 μM peptide, 24 hours of culture", "result": "a major effect on HT-29 cell line proliferation, but exclusively at 24 hours of culture"}, {"measurement": "effect on HT-29 proliferation after 48 hours", "setting": "[3]; 10 μM peptide, 48 hours", "result": "the proliferation returns to its basal level"}]}
{"molecule": "recombinant SOD: recombinant Cucumis melo CuZn superoxide dismutase (pseudo-cytosolic form) expressed in E. coli, His-tag cleaved, refolded (protein, Cucumis melo) MVKAVAVLKGTSDVEGVVTLTQEDDGPTSVNVRITGLTPGPHGFHLHEFGDTTNGCISTGAHFNPNKLTHGAPEDEIRHAGDLGNIIANADGVAEATIVDNQIPLSGPNSVVGRAFVVHELADDLGKGGHELSLTTGNAGGRLACGVVGLTPV", "values": [{"measurement": "inhibition of basal apoptosis", "setting": "[4]", "result": 12.2, "unit": "%"}, {"measurement": "rate of basal apoptosis (annexin V positive cells)", "setting": "[4]", "result": 18, "unit": "%"}, {"measurement": "presence of SOD in the vicinity of the cells (FITC fluorescence)", "setting": "[5]", "result": "clearly visible"}, {"measurement": "inhibition of orexin-induced apoptosis", "setting": "[6]", "result": 26, "unit": "%"}, {"measurement": "rate of orexin-induced apoptosis", "setting": "[6]", "result": 34.4, "unit": "%"}, {"measurement": "prevention of X/XO-induced apoptotic pathway", "setting": "[7]", "result": 71, "unit": "%"}, {"measurement": "toxic effect on HT-29 proliferation curves", "setting": "[3]", "result": "neither SOD nor Gli-SOD exert any toxic effect"}, {"measurement": "dose that does not modify growth of the HT-29 cell line", "setting": "[3]; 48 hours", "result": 10, "unit": "units"}]}
{"molecule": "human Mn-SOD: human manganese superoxide dismutase (protein, UniProt P04179 25-222, looked up) Superoxide dismutase [Mn], …: KHSLPDLPYDYGALEPHINAQIMQLHHSKHHAAYVNNLNVTEEKYQEALAKGDVTAQIALQPALKFNGGGHINHSIFWTNLSPNGGGEPKGELLEAIKRDFGSFDKFKEKLTAASVGVQGSGWGWLGFNKERGHLQIAACPNQDPLQGTTGLIPLLGIDVWEHAYYLQYKNVRPDYLKAIWNVINWENVTERYMACKK", "values": [{"measurement": "anti-inflammatory activity in rats", "setting": "[1]", "result": "no anti-inflammatory activity"}]}
{"molecule": "recombinant Gli-SOD: recombinant melon CuZn SOD fused at its N-terminal part to A-gliadin peptide QQPYPQPQPF (peptide 982) (protein, Cucumis melo) QQPYPQPQPFMVKAVAVLKGTSDVEGVVTLTQEDDGPTSVNVRITGLTPGPHGFHLHEFGDTTNGCISTGAHFNPNKLTHGAPEDEIRHAGDLGNIIANADGVAEATIVDNQIPLSGPNSVVGRAFVVHELADDLGKGGHELSLTTGNAGGRLACGVVGLTPV", "values": [{"measurement": "inhibition of basal apoptosis", "setting": "[4]", "result": 18.1, "unit": "%"}, {"measurement": "rate of basal apoptosis (annexin V positive cells)", "setting": "[4]", "result": 16.8, "unit": "%"}, {"measurement": "presence of SOD in the vicinity of the cells (FITC fluorescence)", "setting": "[5]", "result": "apparently to a greater extent"}, {"measurement": "inhibition of orexin-induced apoptosis", "setting": "[6]", "result": 54.7, "unit": "%"}, {"measurement": "rate of orexin-induced apoptosis", "setting": "[6]", "result": 28.7, "unit": "%"}, {"measurement": "prevention of X/XO-induced apoptotic pathway", "setting": "[7]", "result": 86, "unit": "%"}, {"measurement": "\"peptide effect\" on HT-29 proliferation at 24 hours", "setting": "[3]; 10 units SOD coupled to or associated with 10 μM peptide 982", "result": "no “peptide effect” at 24 hours of culture"}, {"measurement": "toxic effect on HT-29 proliferation curves", "setting": "[3]", "result": "neither SOD nor Gli-SOD exert any toxic effect"}, {"measurement": "dose that does not modify growth of the HT-29 cell line", "setting": "[3]; 48 hours", "result": 5, "unit": "units"}]}
{"molecule": "biosynthetic tomato cytosolic SODs: recombinant Lycopersicon esculentum cytosolic CuZn-SOD expressed in bacteria (protein, listed as Lycopersicon esculentum) MVKAVAVLNSSEGVSGTILFTQDGDAPTTVNGNISGLKPGLHGFHVHALGDTTNGCMSTGPHYNPAGKEHGAPEDEVRHAGDLGNITVGEDGTASFTITDKQIPLTGPQSIIGRAVVVHADPDDLGKGGHELSKSTGNAGGRIACGIIGLQG", "values": [{"measurement": "activity of biosynthetic SOD expressed in the applicant's bacterial system", "setting": "[2]", "result": "a lot less active"}]}
{"molecule": "yeast CuZn-SODs: yeast CuZn superoxide dismutase (protein, UniProt P00445 2-154, looked up) Superoxide dismutase [Cu-Zn]: VQAVAVLKGDAGVSGVVKFEQASESEPTTVSYEIAGNSPNAERGFHIHEFGDATNGCVSAGPHFNPFKKTHGAPTDEVRHVGDMGNVKTDENGVAKGSFKDSLIKLIGPTSVVGRSVVIHAGQDDLGKGDTEESLKTGNAGPRPACGVIGLTN", "values": [{"measurement": "anti-inflammatory activity in rats", "setting": "[1]", "result": "pro-inflammatory activity"}]}
